# Source: article PMC6926458
# Columns and labels:
# [1] = molecular target: Fissurella latimarginata hemocyanin, native (Fissurella latimarginata); test: negative-stain transmission electron microscopy; hemocyanins 0.6 mg/ml on parlodion-coated copper grids, 1-2% uranyl acetate; didecamers, decamers and dissociated structures counted in about 20 images
# [2] = molecular target: Concholepas concholepas hemocyanin, native (Concholepas concholepas); test: as above
substance,measurement,setting,value
"Fissurella latimarginata hemocyanin, native (natural protein)",stoichiometry N,[1],20
"Concholepas concholepas hemocyanin, native (complex)",stoichiometry N,[2],20
